The source of these data is patent publication US20070003923A1 (Scripps Research, published 2007).

B1: wild type Ad5 fiber protein, on Ad5-pseudotyped particles (Ad5.GFP.ΔF/5F) (other)
chain: MKRARPSEDTFNPVYPYDTETGPPTVPFLTPPFVSPNGFQESPPGVLSLRLSEPLVTSNGMLALKMGNGLSLDEAGNLTSQNVTTVSPPLKKTKSNINLEISAPLTVTSEALTVAAAAPLMVAGNTLTMQSQAPLTVHDSKLSIATQGPLTVSEGKLALQTSGPLTTTDSSTLTITASPPLTTATGSLGIDLKEPIYTQNGKLGLKYGAPLHVTDDLNTLTVATGPGVTINNTSLQTKVTGALGFDSQGNMQLNVAGGLRIDSQNRRLILDVSYPFDAQNQLNLRLGQGPLFINSAHNLDINYNKGLYLFTASNNSKKLEVNLSTAKGLMFDATAIAINAGDGLEFGSPNAPNTNPLKTKIGHGLEFDSNKAMVPKLGTGLSFDSTGAITVGNKNNDKLTLWTTPAPSPNCRLNAEKDAKLTLVLTKCGSQILATVSVLAVKGSLAPISGTVQSAHLIIRFDENGVLLNNSFLDPEYWNFRNGDLTEGTAYTNAVGFMPNLSAYPKSHGKTAKSNIVSQVYLNGDKTKPVTLTITLNGTQETGDTTPSAYSMSFSWDWSGHNYINEIFATSSYTFSYIAQE
B2: Coxsackie-Adenovirus Receptor (CAR) on A549 lung carcinoma cells (receptor)
chain: LSITTPEEMIEKAKGETAYLPCKFTLSPEDQGPLDIEWLISPADNQKVDQVIILYSGDKIYDDYYPDLKGRVHFTSNDLKSGDASINVTNLQLSDIGTYQCKVKKAPGVANKKIHLVVLVKPSGARCYVDGSEEIGSDFKIKCEPKEGSLPLQYEWQKLSDSQKMPTSWLAEMTSSVISVKNASSEYSGTYSCTVRNRVGSDQCLLRLNVVPPSNKAGLIAGAIIGTLLALALIGLIIFCCRKKRREEKYEKEVHHDIREDVPPPKSRTSTARSYIGSNHSSLGSMSPSNMEGYSKTQYNQVPSEDFERTPQSPTLPPAKVAAPNLSRMGAIPVMIPAQSKDGSIV
notes: whole, on cells; The assays were run on A549 cells, which were not transfected with CAR

Experiment [1] addresses B2. Nature of the experiment: cell-based or functional assay.
Experiment [2] deals with B1. Kind of experiment: virus attachment to A549 cells at 4 C, bound genomes by TaqMan PCR; non-specific binding set by excess Ad5 knob.
Experiment [3] has as its target T1, Ad5Δs truncated Ad5 fiber (deletion of the 14 central shaft repeats), on pseudotyped Ad5 particles (adenovirus serotype 5 (Ad5), UniProt P11818 1-581).
T1 construct: also called Ad5As; pLP32
T1 sequence: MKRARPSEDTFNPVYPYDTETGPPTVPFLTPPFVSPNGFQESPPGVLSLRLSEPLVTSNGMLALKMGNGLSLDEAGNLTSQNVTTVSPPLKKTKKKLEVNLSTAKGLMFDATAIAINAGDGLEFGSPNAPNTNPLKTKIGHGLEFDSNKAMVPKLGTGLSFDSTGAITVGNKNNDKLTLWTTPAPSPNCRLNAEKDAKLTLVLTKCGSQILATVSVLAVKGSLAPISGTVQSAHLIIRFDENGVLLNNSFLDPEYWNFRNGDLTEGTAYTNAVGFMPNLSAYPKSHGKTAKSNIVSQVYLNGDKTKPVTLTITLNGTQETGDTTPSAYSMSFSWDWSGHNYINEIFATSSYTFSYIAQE
The experiment is described as above.

For experiment [4], the target named is B2. Described as above.

Take B1: in experiment [1], the “infection of A549 cells by GFP vector particles (FACS)” value is roughly 8 fold.

Take B2: the binding result in experiment [2] and in experiment [3] was “binds” in each case.

B3: Ad37s/Ad5k chimeric fiber (Ad37 shaft fused to the Ad5 knob), on pseudotyped Ad5 particles (other)
chain: MKRARPSEDDFNPVYPYGYARNQNIPFLTPPFVSSDGFKNFPPGVLSLKLADPITITNGDVSLKVGGGLTLQDGSLTVNPKAPLQVNTDKKLELAYDNPFESSANKLSLKVGHGLKVLDEKSAAGLKDLIGKLVVLTGKGIGTENLENTDGSSRGIGINVRAREGLTFDNDGYLVAWNPKYDTRTLWTTPAPSPNCRLNAEKDAKLTLVLTKCGSQILATVSVLAVKGSLAPISGTVQSAHLIIRFDENGVLLNNSFLDPEYWNFRNGDLTEGTAYTNAVGFMPNLSAYPKSHGKTAKSNIVSQVYLNGDKTKPVTLTITLNGTQETGDTTPSAYSMSFSWDWSGHNYINEIFATSSYTFSYIAQE
notes: Built from Ad37 1-184, with the first seven residues changed to those of Ad5, and Ad5 400-581; also called pLP13
As for B3, the binding result in experiment [4] is recorded as “binds”.

B4: Ad5s/Ad37s chimeric fiber (Ad5 fiber with the 3rd and 21st repeats replaced with the corresponding repeats of Ad37), on pseudotyped Ad5 particles (other)
chain: MKRARPSEDTFNPVYPYDTETGPPTVPFLTPPFVSPNGFQESPPGVLSLRLSEPLVTSNGMLALKMGNGLSLDEAGSLTVNPKAPLQVNTDSNINLEISAPLTVTSEALTVAAAAPLMVAGNTLTMQSQAPLTVHDSKLSIATQGPLTVSEGKLALQTSGPLTTTDSSTLTITASPPLTTATGSLGIDLKEPIYTQNGKLGLKYGAPLHVTDDLNTLTVATGPGVTINNTSLQTKVTGALGFDSQGNMQLNVAGGLRIDSQNRRLILDVSYPFDAQNQLNLRLGQGPLFINSAHNLDINYNKGLYLFTASNNSKKLEVNLSTAKGLMFDATAIAINAGDGLEFGSPNAPNTNPLKTKIGHGLEFDSNIGINVRAREGLTFDNDGAITVGNKNNDKLTLWTTPAPSPNCRLNAEKDAKLTLVLTKCGSQILATVSVLAVKGSLAPISGTVQSAHLIIRFDENGVLLNNSFLDPEYWNFRNGDLTEGTAYTNAVGFMPNLSAYPKSHGKTAKSNIVSQVYLNGDKTKPVTLTITLNGTQETGDTTPSAYSMSFSWDWSGHNYINEIFATSSYTFSYIAQE
notes: also called 'straightened' Ad5 fiber shaft; pLP43
Regarding B4, in experiment [4], the binding result is given as “binds”.
